2 molecules from doi:10.1101/2020.10.06.328377 can be followed below.

For assay [1], the target named is MsSepF_(core) (Methanobrevibacter smithii SepF, C-terminal FtsZ-binding core, amino acids 54 to 149) (Methanobrevibacter smithii).
For assay [2] the target is unchanged. Put plainly: thermal shift assay.

In turn, “MsSepF_(core) (Methanobrevibacter smithii SepF, C-terminal FtsZ-binding core, amino acids 54 to 149) (domain or fragment)” had a stoichiometry N in assay [1] of 2.
For NEDQLDDFIDGIF [FtsZCTD peptide (C-terminal domain of M. smithii FtsZ)], the melting temperature of MsSepFcore upon addition of MsFtsZCTD (70.6 °C without) in assay [2] was determined as 82.3 °C.

What is called stoichiometry N is a count of units in the complex or per binding partner.
